In publication PMC10318527, “Utilization of dietary mixed-linkage β-glucans by the Firmicute Blautia producta” (The Journal of Biological Chemistry, 2023):

Key:
[1] = substrate: OC[C@H]1O[C@@H](O[C@H]2[C@H](O)[C@@H](O)[C@H](O[C@H]3[C@H](O)[C@@H](O)C(O)O[C@@H]3CO)O[C@@H]2CO)[C@H](O)[C@@H](O)[C@@H]1O; assay: Phosphorolysis kinetics of BpGH94MLG (PAHBAH assay); assay type: biochemical, Blautia producta ATCC 27340; details: other: phosphorolytic reaction, pH 6.5, 37.0 °C
Description: (§1) TLC was used for analyzing enzymatic actions. […] Kinetics parameters for BpGH94MLG were determined with G4G3G, G4G4G3G and cellotriose, following a p-hydroxybenzoic acid hydrazide (PAHBAH) reducing sugar assay ([69]).

[2] = substrate: OC[C@H]1O[C@@H](O[C@H]2[C@H](O)[C@@H](O)[C@H](O[C@H]3[C@H](O)[C@@H](O)[C@H](O[C@H]4[C@H](O)[C@@H](CO)OC(O)[C@@H]4O)O[C@@H]3CO)O[C@@H]2CO)[C@H](O)[C@@H](O)[C@@H]1O; assay: as above; assay type: biochemical, Blautia producta ATCC 27340; details: other: phosphorolytic reaction, pH 6.5, 37.0 °C
Description: as §1

[3] = substrate: OC[C@H]1O[C@@H](O[C@H]2[C@H](O)[C@@H](O)[C@H](O[C@H]3[C@H](O)[C@@H](CO)OC(O)[C@@H]3O)O[C@@H]2CO)[C@H](O)[C@@H](O)[C@@H]1O; assay: as above; assay type: biochemical, Blautia producta ATCC 27340; details: other: phosphorolytic reaction, pH 6.5, 37.0 °C
Description: as §1

[4] = substrate: O=C[C@H](O)[C@@H](O)[C@H](O[C@@H]1O[C@H](CO)[C@@H](O)[C@H](O)[C@H]1O)[C@H](O)CO; assay: purified protein, by the assay type; details: other: PAHBAH assay, 100 mM HEPES pH 6.5, 37 °C
Description: (§2) 150 μl of a freshly prepared 8:2 mixture of reagent A (50 mM sodium sulfite, 0.3 M 4-hydroxybenzhydrazide and 0.6 M HCl) and reagent B (50 mM trisodium citrate, 10 mM CaCl2, 0.5 M NaOH) were added to 50 μl sample. The reaction cocktail was boiled for 10 min at 100 °C. After the reaction was cooled down, the absorbance was recorded at 410 nm using the SpectraMax i3x multi-mode microplate reader. A calibration curve with different concentrations of glucose (0, 2, 4, 8, 16, 40, 80, 100, 200, 300, and 500 μM) was employed for each experiment to calculate the released amount of glucose (reducing end equivalents). The same samples were also used for control measurement, and the control value was subtracted from test reading prior to calculate kinetics parameters. In all cases, the Km, Vmax, and kcat were analyzed on GraphPad Prism. Three independent replicates were used for each test. TLC analyses were used for understanding the enzymatic degradation profiles of various oligosaccharides.

[5] = substrate: OC[C@H]1O[C@@H](O[C@H]2[C@H](O)[C@@H](CO)OC(O)[C@@H]2O)[C@H](O)[C@@H](O)[C@@H]1O; assay: purified protein, by the assay type; details: other: PAHBAH assay, 100 mM HEPES pH 6.5, 37 °C
Description: as §2

[6] = substrate: OC[C@H]1O[C@@H](O[C@H]2[C@H](O)[C@@H](O)[C@H](O[C@H]3[C@H](O)[C@@H](O)[C@H](O[C@H]4[C@H](O)[C@@H](O)C(O)O[C@@H]4CO)O[C@@H]3CO)O[C@@H]2CO)[C@H](O)[C@@H](O)[C@@H]1O; assay: purified protein, by the assay type; details: other: PAHBAH assay, 100 mM HEPES pH 6.5, 37 °C
Description: as §2

[7] = substrate: OC[C@H]1O[C@@H](O[C@H]2[C@H](O)[C@@H](O)[C@H](O[C@H]3[C@H](O)[C@@H](O)C(O)O[C@@H]3CO)O[C@@H]2CO)[C@H](O)[C@@H](O)[C@@H]1O; assay: purified protein, by the assay type; details: other: PAHBAH assay, 100 mM HEPES pH 6.5, 37 °C
Description: as §2

[8] = substrate: OC[C@H]1O[C@@H](O[C@@H]2[C@@H](O)[C@H](O[C@H]3[C@H](O)[C@@H](CO)OC(O)[C@@H]3O)O[C@H](CO)[C@H]2O)[C@H](O)[C@@H](O)[C@@H]1O; assay: purified protein, by the assay type; details: other: PAHBAH assay, 100 mM HEPES pH 6.5, 37 °C
Description: as §2

[9] = substrate: OC[C@H]1O[C@@H](O[C@H]2[C@H](O)[C@@H](O)[C@H](O[C@H]3[C@H](O)[C@@H](O)[C@H](O[C@H]4[C@H](O)[C@@H](CO)OC(O)[C@@H]4O)O[C@@H]3CO)O[C@@H]2CO)[C@H](O)[C@@H](O)[C@@H]1O; assay: purified protein, by the assay type; details: other: PAHBAH assay, 100 mM HEPES pH 6.5, 37 °C
Description: as §2

[10] = substrate: OC[C@H]1O[C@@H](O[C@H]2[C@H](O)[C@@H](O)[C@H](O[C@H]3[C@H](O)[C@@H](CO)OC(O)[C@@H]3O)O[C@@H]2CO)[C@H](O)[C@@H](O)[C@@H]1O; assay: purified protein, by the assay type; details: other: PAHBAH assay, 100 mM HEPES pH 6.5, 37 °C
Description: as §2

[11] = substrate: OC[C@H]1O[C@@H](O[C@@H]2[C@@H](O)[C@H](O[C@H]3[C@H](O)[C@@H](CO)OC(O)[C@@H]3O)O[C@H](CO)[C@H]2O)[C@H](O)[C@@H](O)[C@@H]1O; assay: purified protein, by the assay type; assay type: biochemical, Blautia producta ATCC 27340; details: other: PAHBAH assay, 100 mM HEPES pH 6.5, 37 °C
Description: as §2

[12] = substrate: OC[C@H]1O[C@@H](O[C@H]2[C@H](O)[C@@H](O)[C@H](O[C@H]3[C@H](O)[C@@H](O)[C@H](O[C@H]4[C@H](O)[C@@H](CO)OC(O)[C@@H]4O)O[C@@H]3CO)O[C@@H]2CO)[C@H](O)[C@@H](O)[C@@H]1O; assay: purified protein, by the assay type; assay type: biochemical, Blautia producta ATCC 27340; details: other: PAHBAH assay, 100 mM HEPES pH 6.5, 37 °C
Description: as §2

[13] = substrate: OC[C@H]1O[C@@H](O[C@H]2[C@H](O)[C@@H](O)[C@H](O[C@H]3[C@H](O)[C@@H](CO)OC(O)[C@@H]3O)O[C@@H]2CO)[C@H](O)[C@@H](O)[C@@H]1O; assay: purified protein, by the assay type; assay type: biochemical, Blautia producta ATCC 27340; details: other: PAHBAH assay, 100 mM HEPES pH 6.5, 37 °C
Description: as §2

B1: BpGH94MLG (Blautia producta) (protein)
chain: MKYGYFDEEKKEYVITRPDTPAPWVNYLGSPEYGAIISNNAGGYSFEKSGANGRILRYVFNNFDQPGRYIYIRDQENKDFWSASWQPVGKPQDVYQCECRHGTAYTNMRAEYSEISSEVLYYVPLGAAYEVWRLRLTNNSDRPRNLCVTGYAEFTNNSNYEQDQVNLQYSQFITQTAFRGNRICQMIHANLDQLEPGKDVDDKQVTERFFGLAGNPVTSWCGDKDGFLGRYHGYDAPKGVIEGKLSCLPNYNGNGCGALSSDFVLKPGEAKEVVFVLGMKKDAEVEEILKRYEIPETVCREEFHKLVKYWHGYLSHFQVKTPSREFNTMVNTWNAYNCFMTFIWSRAASFIYCGLRNGYGYRDTVQDIQGIIHLAPDMALEKIRFMLSAQADNGGGLPLVKFTHNPGHEDTPDDASYVKETGHPAYRADDALWLFPTVYKYIAETGNMDFIDEVIPFANRGKATVYEHLKRAVKFSMDHLGRHGMPAGLYADWNDCLRLGKDGESTFVAMQFYYAMTILKKFAKYKKDVEYMEFLCERQKKLEELIQKFCWDEGRFIRGFTENGEIIGKSTDPEANMWLNPQSWAVISGVANEEQADRVLDVVEKRLNTEYGLVLMDPPYHAHAFDGALAVIYNPGTKENAGIFSQSQGWIILAEALRGHGERAFTYFMENAPAAQNDRADIRKLEPYCYGQFTEGKDSPNFGRSHVHWLTGTASTIMVGCVEGILGIRPDFYGIRLAPAIPKEWEEYEVEKDFRGCHLHIKVKNPGHVESGCEKLVVNGNVVTGSYIPADLLTEQTDIELFIS
Work on B1 yielded a Km [1] of 28 ± 4 µM, a kcat [1] of 0.67 ± 0.021 s⁻¹ and a kcat/Km [1] of 23900 M⁻¹ s⁻¹. For the same protein, the Km [2] was 21 ± 2 µM, the kcat [2] was 1.21 ± 0.014 s⁻¹ and the kcat/Km [2] was 57600 M⁻¹ s⁻¹. For the same protein, the Km [3] was 52 ± 5 µM, the kcat [3] was 1.86 ± 0.022 s⁻¹ and the kcat/Km [3] was 35700 M⁻¹ s⁻¹.

B2: BpGH3-X62MLG (Blautia producta ATCC 27340 = DSM 2950) (protein)
chain: MENKYVIDWDKYAALARRAAAEGAVLLKNDNQALPLKKETISVFGRIQYHYYKSGTGSGGLVNAKYVIGIMDALQEEKDLTLDEELAAVYRSWIMEHPFDQGSGWAQEPWSQEEMPLDEKMVEEAAARSDTAVIVIGRTAGEDRDASAEKGSYLLTDLEEDMLEKVCRLFKKSIVVLNVGNIIDMKWVEKYNPSAVLYTWQGGQEGGHSAADVLTGRVNPCGKLADTIARDISDYPSTENFGGGDFDIYAEDIYVGYRYFETFARDKVLYPFGFGLSYTSFRTECGPIKRLDGETSVCVKVTNAGSCAGKEVVQMYVEPPQGKLGKPSRNLAAFAKTKCLQPGESQELVLKVTDYYISSYDDSGAAGFKSCYVLENGSYGIYVGTDVRGAEAAGSFYIPETIATSVCTEAAGPVRQFKRMRAKEGGALAWEEAPLRTHKMQERIHKEILPDITYTGNKGFTLGEVFDRDISLNEFLAQLSEEDLCCIVRGEGMCSPKVTPGTAAAFGGVTESLQKLGIPCGCCADGPSGIRMDCGTPAFSMPNGTCLACTFDTELSEELYEMEGAELRKNRIDTLLGPGINIHRNPLNGRNFEYFSEDPYLTGIMASAQLKGMARFGVTGTIKHFAANNQEYHRRLLDSVMSERALREIYLRGFEIAVKEGKAYSIMTTYGAINGLWTASNYDLLTTILRKEWGFEGMVMTDWWADLNDEGGQPSTDNLAAMVRSQNDVYMVTQDSLNNKDNLMESLKNGTLKRGALLRCAGNICRMLMRSPVMERTLGRMSEEEKKAGEVMAGEDKVDFDITYHKVQGSLVLDGTKIDTSKGNSVVYGILLDTFGSYKVRLKVKADSGELAQIPVSVFANGHLEGTVTINGTKGEWIEIEKTIGPLFGPHNYVRLYFAQSGMQIQTVTIELQEKMDRGF
In the case of B2, the Km [4] is reported as 200 ± 30 µM, the kcat [4] is reported as 8 ± 0.01 s⁻¹ and the kcat/Km [4] is reported as 38000 M⁻¹ s⁻¹. It also gave a kcat [5] of 12 ± 0.2 s⁻¹, a kcat/Km [5] of 48000 M⁻¹ s⁻¹ and a Km [6] of 450 ± 60 µM. The kcat [6] was 19 ± 0.3 s⁻¹, the kcat/Km [6] was 43000 M⁻¹ s⁻¹ and the Km [7] was 260 ± 30 µM. For the same protein, the kcat [7] was 15 ± 0.2 s⁻¹, the kcat/Km [7] was 59000 M⁻¹ s⁻¹ and the kcat [8] was 12 ± 0.2 s⁻¹. It also gave a kcat/Km [8] of 51000 M⁻¹ s⁻¹, a Km [9] of 250 ± 50 µM and a Km [10] of 230 ± 40 µM. For the same protein, the kcat [10] was 17 ± 0.3 s⁻¹ and the kcat/Km [10] was 73000 M⁻¹ s⁻¹.

B3: BpGH3-AR8MLG (Blautia producta ATCC 27340 = DSM 2950) (protein)
chain: MKLKNKTFTGTTSNEVTARETENRKLARLAAAEGFVLLKNQDHILPLKKGIKLGLYGAGAVKTIKGGTGSGDVNERECVNICQGLENAGYEITSSAWLEAYASLYEETRLKWRDEILGKLEAYDNNFFEAYSTTPFFMPCGNPVDVDKASDDGADTAIYVLSRIAGENADRHDTEGDYYISAEEKALIAQLSKAYDSLVLVINTGGLVDLAFVQEFDNIKAVLQFVQAGQEGGSAFADVVSGKVTPSGKLADTWAFDYKDYPNSETFSFKNGDVNTEKYQEGIYVGYRYFDTFDVPVLYPFGFGLSYTDFMICTEEIKTVNTESGKPEIAVTVKVTNTGDTYCGKEVVQIYVSCPQGKLAKEYRRLAGFAKTEELKPGESCRITITFPVYQLASFHEENAAWVLEEGTYGVWTGNSIQGAKLAGSLCVDKDAILVQCEHICPVKEELTELTPDSSRMKEKEAAWLEKAAGLPSVHIDAEKITKETVVYTELPERFTGRAGEIVESLSVEQLIQMSAGDPGKGQDAVLGSAGITVPGAAAETSSAASGEPWNLPSIALADGPAGLRLNQKYQVVDGEIVRENFMKSIEKGFFAEPSPEVGTAYYQFCTAIPVGTLLAQTWNAELVKEVGEMIGKEMELFQVTLWLAPGMNIHRNPLCGRNFEYYSEDPLLSGIMASAMTLGVQKVPGCGTTIKHFACNNQEDNRMGSDSVLSERALREIYLKGFEIAVKNSQPMSIMTSYNMINGVHAANCYDICTRAARDEWEFAGAVMTDWTTTFASPRGECTAAGCMRAGNDMVMPGIPKDHENIRRELEEGTLDIRELKRCICNTVNLILQSNRYENAVSYLEQFEGLDAYLSVERSN
B3 showed a Km [11] of 230 ± 50 µM, a kcat [11] of 12 ± 0.2 s⁻¹ and a kcat/Km [11] of 52000 M⁻¹ s⁻¹. For the same protein, the Km [12] was 300 ± 40 µM, the kcat [12] was 20 ± 0.3 s⁻¹ and the kcat/Km [12] was 67000 M⁻¹ s⁻¹. It also gave a kcat [13] of 17 ± 0.3 s⁻¹ and a kcat/Km [13] of 71000 M⁻¹ s⁻¹.
